In US20150344540A1, “NOVEL GLP-1 RECEPTOR AGONISTS WITH CHOLESTEROL EFFLUX ACTIVITY” (NOVO NORDISK A/S, priority 2012, published 2015):
Where no end group is shown, it is not given here. [ ]: non-standard residue; d: D form. Aib = CC(C)(N)C(=O)O

B1: [Aib8,Glu23,Val25,Trp30,Glu34,Lys35,Aib36,Lys37]-GLP-1-(7-37)-peptidyl-Glu-Phe-Leu amide (peptide)
peptide: H[Aib]EGTFTSDVSSYLEGEAVKEFIWWLVEK[Aib]KEFL-NH2
modifications: N-terminus assumed
SMILES: CC[C@H](C)[C@H](NC(=O)[C@H](Cc1ccccc1)NC(=O)[C@H](CCC(=O)O)NC(=O)[C@H](CCCCN)NC(=O)[C@@H](NC(=O)[C@H](C)NC(=O)[C@H](CCC(=O)O)NC(=O)CNC(=O)[C@H](CCC(=O)O)NC(=O)[C@H](CC(C)C)NC(=O)[C@H](Cc1ccc(O)cc1)NC(=O)[C@H](CO)NC(=O)[C@H](CO)NC(=O)[C@@H](NC(=O)[C@H](CC(=O)O)NC(=O)[C@H](CO)NC(=O)[C@@H](NC(=O)[C@H](Cc1ccccc1)NC(=O)[C@@H](NC(=O)CNC(=O)[C@H](CCC(=O)O)NC(=O)C(C)(C)NC(=O)[C@@H](N)Cc1c[nH]cn1)[C@@H](C)O)[C@@H](C)O)C(C)C)C(C)C)C(=O)N[C@@H](Cc1c[nH]c2ccccc12)C(=O)N[C@@H](Cc1c[nH]c2ccccc12)C(=O)N[C@@H](CC(C)C)C(=O)N[C@H](C(=O)N[C@@H](CCC(=O)O)C(=O)N[C@@H](CCCCN)C(=O)NC(C)(C)C(=O)N[C@@H](CCCCN)C(=O)N[C@@H](CCC(=O)O)C(=O)N[C@@H](Cc1ccccc1)C(=O)N[C@@H](CC(C)C)C(N)=O)C(C)C
B2: [Aib8,Glu23,Arg24,Val25,Glu34,Lys35,Aib36,Lys37]-GLP-1-(7-37)-peptidyl-Glu-Phe-Leu amide (peptide)
peptide: H[Aib]EGTFTSDVSSYLEGERVKEFIAWLVEK[Aib]KEFL-NH2
modifications: N-terminus assumed
SMILES: CC[C@H](C)[C@H](NC(=O)[C@H](Cc1ccccc1)NC(=O)[C@H](CCC(=O)O)NC(=O)[C@H](CCCCN)NC(=O)[C@@H](NC(=O)[C@H](CCCNC(=N)N)NC(=O)[C@H](CCC(=O)O)NC(=O)CNC(=O)[C@H](CCC(=O)O)NC(=O)[C@H](CC(C)C)NC(=O)[C@H](Cc1ccc(O)cc1)NC(=O)[C@H](CO)NC(=O)[C@H](CO)NC(=O)[C@@H](NC(=O)[C@H](CC(=O)O)NC(=O)[C@H](CO)NC(=O)[C@@H](NC(=O)[C@H](Cc1ccccc1)NC(=O)[C@@H](NC(=O)CNC(=O)[C@H](CCC(=O)O)NC(=O)C(C)(C)NC(=O)[C@@H](N)Cc1c[nH]cn1)[C@@H](C)O)[C@@H](C)O)C(C)C)C(C)C)C(=O)N[C@@H](C)C(=O)N[C@@H](Cc1c[nH]c2ccccc12)C(=O)N[C@@H](CC(C)C)C(=O)N[C@H](C(=O)N[C@@H](CCC(=O)O)C(=O)N[C@@H](CCCCN)C(=O)NC(C)(C)C(=O)N[C@@H](CCCCN)C(=O)N[C@@H](CCC(=O)O)C(=O)N[C@@H](Cc1ccccc1)C(=O)N[C@@H](CC(C)C)C(N)=O)C(C)C
B3: [Aib8,Glu23,Val25,Lys27,Glu34,Lys35,Aib36,Lys37]-GLP-1-(7-37)-peptidyl-Glu-Phe-Leu amide (peptide)
peptide: H[Aib]EGTFTSDVSSYLEGEAVKKFIAWLVEK[Aib]KEFL-NH2
modifications: N-terminus assumed
SMILES: CC[C@H](C)[C@H](NC(=O)[C@H](Cc1ccccc1)NC(=O)[C@H](CCCCN)NC(=O)[C@H](CCCCN)NC(=O)[C@@H](NC(=O)[C@H](C)NC(=O)[C@H](CCC(=O)O)NC(=O)CNC(=O)[C@H](CCC(=O)O)NC(=O)[C@H](CC(C)C)NC(=O)[C@H](Cc1ccc(O)cc1)NC(=O)[C@H](CO)NC(=O)[C@H](CO)NC(=O)[C@@H](NC(=O)[C@H](CC(=O)O)NC(=O)[C@H](CO)NC(=O)[C@@H](NC(=O)[C@H](Cc1ccccc1)NC(=O)[C@@H](NC(=O)CNC(=O)[C@H](CCC(=O)O)NC(=O)C(C)(C)NC(=O)[C@@H](N)Cc1c[nH]cn1)[C@@H](C)O)[C@@H](C)O)C(C)C)C(C)C)C(=O)N[C@@H](C)C(=O)N[C@@H](Cc1c[nH]c2ccccc12)C(=O)N[C@@H](CC(C)C)C(=O)N[C@H](C(=O)N[C@@H](CCC(=O)O)C(=O)N[C@@H](CCCCN)C(=O)NC(C)(C)C(=O)N[C@@H](CCCCN)C(=O)N[C@@H](CCC(=O)O)C(=O)N[C@@H](Cc1ccccc1)C(=O)N[C@@H](CC(C)C)C(N)=O)C(C)C
B4: [Aib8,Glu23,Lys24,Val25,Glu34,Lys35,Aib36,Lys37]-GLP-1-(7-37)-peptidyl-Glu-Phe-Leu amide (peptide)
peptide: H[Aib]EGTFTSDVSSYLEGEKVKEFIAWLVEK[Aib]KEFL-NH2
modifications: N-terminus assumed
SMILES: CC[C@H](C)[C@H](NC(=O)[C@H](Cc1ccccc1)NC(=O)[C@H](CCC(=O)O)NC(=O)[C@H](CCCCN)NC(=O)[C@@H](NC(=O)[C@H](CCCCN)NC(=O)[C@H](CCC(=O)O)NC(=O)CNC(=O)[C@H](CCC(=O)O)NC(=O)[C@H](CC(C)C)NC(=O)[C@H](Cc1ccc(O)cc1)NC(=O)[C@H](CO)NC(=O)[C@H](CO)NC(=O)[C@@H](NC(=O)[C@H](CC(=O)O)NC(=O)[C@H](CO)NC(=O)[C@@H](NC(=O)[C@H](Cc1ccccc1)NC(=O)[C@@H](NC(=O)CNC(=O)[C@H](CCC(=O)O)NC(=O)C(C)(C)NC(=O)[C@@H](N)Cc1c[nH]cn1)[C@@H](C)O)[C@@H](C)O)C(C)C)C(C)C)C(=O)N[C@@H](C)C(=O)N[C@@H](Cc1c[nH]c2ccccc12)C(=O)N[C@@H](CC(C)C)C(=O)N[C@H](C(=O)N[C@@H](CCC(=O)O)C(=O)N[C@@H](CCCCN)C(=O)NC(C)(C)C(=O)N[C@@H](CCCCN)C(=O)N[C@@H](CCC(=O)O)C(=O)N[C@@H](Cc1ccccc1)C(=O)N[C@@H](CC(C)C)C(N)=O)C(C)C
B5: [Aib8,Glu23,Aib24,Val25,Aib30,Glu34,Lys35,Aib36,Lys37]-GLP-1-(7-37)-peptidyl-Glu-Phe-Leu amide (peptide)
peptide: H[Aib]EGTFTSDVSSYLEGE[Aib]VKEFI[Aib]WLVEK[Aib]KEFL-NH2
modifications: N-terminus assumed
SMILES: CC[C@H](C)[C@H](NC(=O)[C@H](Cc1ccccc1)NC(=O)[C@H](CCC(=O)O)NC(=O)[C@H](CCCCN)NC(=O)[C@@H](NC(=O)C(C)(C)NC(=O)[C@H](CCC(=O)O)NC(=O)CNC(=O)[C@H](CCC(=O)O)NC(=O)[C@H](CC(C)C)NC(=O)[C@H](Cc1ccc(O)cc1)NC(=O)[C@H](CO)NC(=O)[C@H](CO)NC(=O)[C@@H](NC(=O)[C@H](CC(=O)O)NC(=O)[C@H](CO)NC(=O)[C@@H](NC(=O)[C@H](Cc1ccccc1)NC(=O)[C@@H](NC(=O)CNC(=O)[C@H](CCC(=O)O)NC(=O)C(C)(C)NC(=O)[C@@H](N)Cc1c[nH]cn1)[C@@H](C)O)[C@@H](C)O)C(C)C)C(C)C)C(=O)NC(C)(C)C(=O)N[C@@H](Cc1c[nH]c2ccccc12)C(=O)N[C@@H](CC(C)C)C(=O)N[C@H](C(=O)N[C@@H](CCC(=O)O)C(=O)N[C@@H](CCCCN)C(=O)NC(C)(C)C(=O)N[C@@H](CCCCN)C(=O)N[C@@H](CCC(=O)O)C(=O)N[C@@H](Cc1ccccc1)C(=O)N[C@@H](CC(C)C)C(N)=O)C(C)C
B6: [Aib8,Glu23,Val25,Glu34,Lys35,Aib36,Lys37]-GLP-1-(7-37)-peptidyl-Glu amide (peptide)
peptide: H[Aib]EGTFTSDVSSYLEGEAVKEFIAWLVEK[Aib]KE-NH2
modifications: N-terminus assumed
SMILES: CC[C@H](C)[C@H](NC(=O)[C@H](Cc1ccccc1)NC(=O)[C@H](CCC(=O)O)NC(=O)[C@H](CCCCN)NC(=O)[C@@H](NC(=O)[C@H](C)NC(=O)[C@H](CCC(=O)O)NC(=O)CNC(=O)[C@H](CCC(=O)O)NC(=O)[C@H](CC(C)C)NC(=O)[C@H](Cc1ccc(O)cc1)NC(=O)[C@H](CO)NC(=O)[C@H](CO)NC(=O)[C@@H](NC(=O)[C@H](CC(=O)O)NC(=O)[C@H](CO)NC(=O)[C@@H](NC(=O)[C@H](Cc1ccccc1)NC(=O)[C@@H](NC(=O)CNC(=O)[C@H](CCC(=O)O)NC(=O)C(C)(C)NC(=O)[C@@H](N)Cc1c[nH]cn1)[C@@H](C)O)[C@@H](C)O)C(C)C)C(C)C)C(=O)N[C@@H](C)C(=O)N[C@@H](Cc1c[nH]c2ccccc12)C(=O)N[C@@H](CC(C)C)C(=O)N[C@H](C(=O)N[C@@H](CCC(=O)O)C(=O)N[C@@H](CCCCN)C(=O)NC(C)(C)C(=O)N[C@@H](CCCCN)C(=O)N[C@@H](CCC(=O)O)C(N)=O)C(C)C
B7: [Aib8,Lys23,Arg24,Arg26,Glu34,Lys35,Aib36,Lys37]-GLP-1-(7-37)-peptidyl-Glu-Phe-Leu amide (peptide)
peptide: H[Aib]EGTFTSDVSSYLEGKRAREFIAWLVEK[Aib]KEFL-NH2
modifications: N-terminus assumed
SMILES: CC[C@H](C)[C@H](NC(=O)[C@H](Cc1ccccc1)NC(=O)[C@H](CCC(=O)O)NC(=O)[C@H](CCCNC(=N)N)NC(=O)[C@H](C)NC(=O)[C@H](CCCNC(=N)N)NC(=O)[C@H](CCCCN)NC(=O)CNC(=O)[C@H](CCC(=O)O)NC(=O)[C@H](CC(C)C)NC(=O)[C@H](Cc1ccc(O)cc1)NC(=O)[C@H](CO)NC(=O)[C@H](CO)NC(=O)[C@@H](NC(=O)[C@H](CC(=O)O)NC(=O)[C@H](CO)NC(=O)[C@@H](NC(=O)[C@H](Cc1ccccc1)NC(=O)[C@@H](NC(=O)CNC(=O)[C@H](CCC(=O)O)NC(=O)C(C)(C)NC(=O)[C@@H](N)Cc1c[nH]cn1)[C@@H](C)O)[C@@H](C)O)C(C)C)C(=O)N[C@@H](C)C(=O)N[C@@H](Cc1c[nH]c2ccccc12)C(=O)N[C@@H](CC(C)C)C(=O)N[C@H](C(=O)N[C@@H](CCC(=O)O)C(=O)N[C@@H](CCCCN)C(=O)NC(C)(C)C(=O)N[C@@H](CCCCN)C(=O)N[C@@H](CCC(=O)O)C(=O)N[C@@H](Cc1ccccc1)C(=O)N[C@@H](CC(C)C)C(N)=O)C(C)C
B8: [Aib8,Glu23,Val25,Glu34,Lys35,Aib36,Lys37]-GLP-1-(7-37)-peptidyl-Glu-Phe amide (peptide)
peptide: H[Aib]EGTFTSDVSSYLEGEAVKEFIAWLVEK[Aib]KEF-NH2
modifications: N-terminus assumed
SMILES: CC[C@H](C)[C@H](NC(=O)[C@H](Cc1ccccc1)NC(=O)[C@H](CCC(=O)O)NC(=O)[C@H](CCCCN)NC(=O)[C@@H](NC(=O)[C@H](C)NC(=O)[C@H](CCC(=O)O)NC(=O)CNC(=O)[C@H](CCC(=O)O)NC(=O)[C@H](CC(C)C)NC(=O)[C@H](Cc1ccc(O)cc1)NC(=O)[C@H](CO)NC(=O)[C@H](CO)NC(=O)[C@@H](NC(=O)[C@H](CC(=O)O)NC(=O)[C@H](CO)NC(=O)[C@@H](NC(=O)[C@H](Cc1ccccc1)NC(=O)[C@@H](NC(=O)CNC(=O)[C@H](CCC(=O)O)NC(=O)C(C)(C)NC(=O)[C@@H](N)Cc1c[nH]cn1)[C@@H](C)O)[C@@H](C)O)C(C)C)C(C)C)C(=O)N[C@@H](C)C(=O)N[C@@H](Cc1c[nH]c2ccccc12)C(=O)N[C@@H](CC(C)C)C(=O)N[C@H](C(=O)N[C@@H](CCC(=O)O)C(=O)N[C@@H](CCCCN)C(=O)NC(C)(C)C(=O)N[C@@H](CCCCN)C(=O)N[C@@H](CCC(=O)O)C(=O)N[C@@H](Cc1ccccc1)C(N)=O)C(C)C

Biological target: human GLP-1 receptor (human, UniProt P43220)
Assay: cell-based or functional assay

Binder	CRE luciferase EC50, 0% HSA [nM]	CRE luciferase EC50, 1% HSA [nM]
B1	0.157	0.054
B2	1.08	0.273
B3	0.325	0.097
B4	0.487	0.174
B5	0.396	0.193
B6	0.014	0.005
B7	0.383	0.138
B8	0.022	0.015
